In general, Km refers to the substrate concentration at which the rate is half of its maximum. What is called kcat is the number of substrate molecules converted per active site and unit of time at saturation. Usually kcat/Km stands for the turnover number divided by the Michaelis constant.

Substrate in data set [1]: CC(C(=O)O)C(O)(CC(=O)O)C(=O)O
The data set is described as follows: HPLC end-point assay. Format: biochemical, Escherichia coli. Conditions: 2 mM Tris-HCl, 37 °C, 10 min, 0.1-1 mM substrate. The source says: (§1) HPLC end-point assay on PrpD

Substrate in data set [2]: O=C(O)/C=C(/CC(=O)O)C(=O)O
The experiment in a line: HPLC end-point assay. Format: biochemical, Escherichia coli. Conditions: 2 mM Tris-HCl, 37 °C, 10 min, 0.05-1.0 mM substrate.
From the text: as §1

B1: PrpD (Escherichia coli K-12; G111T/W110V) (protein)
chain: SAQINNIRPEFDREIVDIVDYVMNYEISSKVAYDTAHYCLLDTLGCGLEALEYPACKKLLGPIVPGTVVPNGVRVPGTQFQLDPVQAAFNIGAMIRWLDFNDTWLAAEVTHPSDNLGGILATADWLSRNAVASGKAPLTMKQVLTAMIKAHEIQGCIALENSFNRVGLDHVLLVKVASTAVVAEMLGLTREEILNAVSLAWVDGQSLRTYRHAPNTGTRKSWAAGDATSRAVRLALMAKTGEMGYPSALTAPVWGFYDVSFKGESFRFQRPYGSYVMENVLFKISFPAEFHSQTAVEAAMTLYEQMQAAGKTAADIEKVTIRTHEACIRIIDKKGPLNNPADRDHCIQYMVAIPLLFGRLTAADYEDNVAQDKRIDALREKINCFEDPAFTADYHDPEKRAIANAITLEFTDGTRFEEVVVEYPIGHARRRQDGIPKLVDKFKINLARQFPTRQQQRILEVSLDRARLEQMPVNEYLDLYVI
notes: 6xHis-tagged, cloned from E. coli W into pACYCduet-1, purified anaerobically by His-tag kit
In the case of B1, in “HPLC end-point assay [1]”, the Km is 1930 ± 210 µM, the kcat amounted to 0.023 ± 0.008 s⁻¹ and the kcat/Km worked out at 12 ± 6 M⁻¹ s⁻¹. Moreover, in “HPLC end-point assay [2]”, the Km is 1720 ± 250 µM, the kcat came out at 172 ± 20 s⁻¹ and the kcat/Km stood at 101000 ± 3180 M⁻¹ s⁻¹.

B2: PrpD (Escherichia coli K-12) (protein)
chain: SAQINNIRPEFDREIVDIVDYVMNYEISSKVAYDTAHYCLLDTLGCGLEALEYPACKKLLGPIVPGTVVPNGVRVPGTQFQLDPVQAAFNIGAMIRWLDFNDTWLAAEWGHPSDNLGGILATADWLSRNAVASGKAPLTMKQVLTAMIKAHEIQGCIALENSFNRVGLDHVLLVKVASTAVVAEMLGLTREEILNAVSLAWVDGQSLRTYRHAPNTGTRKSWAAGDATSRAVRLALMAKTGEMGYPSALTAPVWGFYDVSFKGESFRFQRPYGSYVMENVLFKISFPAEFHSQTAVEAAMTLYEQMQAAGKTAADIEKVTIRTHEACIRIIDKKGPLNNPADRDHCIQYMVAIPLLFGRLTAADYEDNVAQDKRIDALREKINCFEDPAFTADYHDPEKRAIANAITLEFTDGTRFEEVVVEYPIGHARRRQDGIPKLVDKFKINLARQFPTRQQQRILEVSLDRARLEQMPVNEYLDLYVI
notes: as for B1
B2: in “HPLC end-point assay [1]”, the Km amounted to 960 ± 850 µM, the kcat came to 0.045 ± 0.025 s⁻¹ and the kcat/Km was determined as 75 ± 54 M⁻¹ s⁻¹. Also, in “HPLC end-point assay [2]”, the Km worked out at 700 ± 100 µM, the kcat was 119 ± 13.4 s⁻¹ and the kcat/Km was determined as 171000 ± 5650 M⁻¹ s⁻¹.

B3: PrpD (Escherichia coli K-12; I331L/W110V) (protein)
chain: SAQINNIRPEFDREIVDIVDYVMNYEISSKVAYDTAHYCLLDTLGCGLEALEYPACKKLLGPIVPGTVVPNGVRVPGTQFQLDPVQAAFNIGAMIRWLDFNDTWLAAEVGHPSDNLGGILATADWLSRNAVASGKAPLTMKQVLTAMIKAHEIQGCIALENSFNRVGLDHVLLVKVASTAVVAEMLGLTREEILNAVSLAWVDGQSLRTYRHAPNTGTRKSWAAGDATSRAVRLALMAKTGEMGYPSALTAPVWGFYDVSFKGESFRFQRPYGSYVMENVLFKISFPAEFHSQTAVEAAMTLYEQMQAAGKTAADIEKVTIRTHEACIRLIDKKGPLNNPADRDHCIQYMVAIPLLFGRLTAADYEDNVAQDKRIDALREKINCFEDPAFTADYHDPEKRAIANAITLEFTDGTRFEEVVVEYPIGHARRRQDGIPKLVDKFKINLARQFPTRQQQRILEVSLDRARLEQMPVNEYLDLYVI
notes: as for B1
In the case of B3, in “HPLC end-point assay [1]”, the Km was 1720 ± 540 µM, the kcat amounted to 0.035 ± 0.009 s⁻¹ and the kcat/Km was 21 ± 2 M⁻¹ s⁻¹. In the data set “HPLC end-point assay [2]”, the Km was 1520 ± 80 µM, the kcat is 96.3 ± 4.55 s⁻¹ and the kcat/Km is 63600 ± 3330 M⁻¹ s⁻¹.

B4: PrpD (Escherichia coli K-12; G111T/I331L/W110V) (protein)
chain: SAQINNIRPEFDREIVDIVDYVMNYEISSKVAYDTAHYCLLDTLGCGLEALEYPACKKLLGPIVPGTVVPNGVRVPGTQFQLDPVQAAFNIGAMIRWLDFNDTWLAAEVTHPSDNLGGILATADWLSRNAVASGKAPLTMKQVLTAMIKAHEIQGCIALENSFNRVGLDHVLLVKVASTAVVAEMLGLTREEILNAVSLAWVDGQSLRTYRHAPNTGTRKSWAAGDATSRAVRLALMAKTGEMGYPSALTAPVWGFYDVSFKGESFRFQRPYGSYVMENVLFKISFPAEFHSQTAVEAAMTLYEQMQAAGKTAADIEKVTIRTHEACIRLIDKKGPLNNPADRDHCIQYMVAIPLLFGRLTAADYEDNVAQDKRIDALREKINCFEDPAFTADYHDPEKRAIANAITLEFTDGTRFEEVVVEYPIGHARRRQDGIPKLVDKFKINLARQFPTRQQQRILEVSLDRARLEQMPVNEYLDLYVI
notes: as for B1
For the protein B4, in “HPLC end-point assay [1]”, the Km came out at 1960 ± 210 µM, the kcat came out at 0.024 ± 0.008 s⁻¹ and the kcat/Km was found to be 13 ± 5 M⁻¹ s⁻¹. Besides, in “HPLC end-point assay [2]”, the Km stood at 720 ± 100 µM, the kcat came out at 81.8 ± 14.1 s⁻¹ and the kcat/Km was 114000 ± 14600 M⁻¹ s⁻¹.

The values are drawn from PMC9468356, “Kinetic compartmentalization by unnatural reaction for itaconate production” (Nature Communications, 2022).
